This is an account of results in patent US20250163449A1, “HERBICIDE-TOLERANT GENES AND METHOD FOR USING SAME” (QINGDAO KINGAGROOT CHEMICAL COMPOUND CO., LTD., priority 2022, published 2025).

Positions count from the first letter of the chain named. In names and notes the source's numbering stands.

B1: SEQ ID NO: 98: RdpA mutant L82H + V187L + F182W + G103L + V80T (protein)
chain: MHAALSPLSQRFERIAVQPLTGVLGAEITGVDLREPLDDSTWNEILDAFHTYQVIYFPGQAITNEQHIAFSRRFGPVDPTPHLKSIEGYPEVQMIRREANESLRVIGDDWHTDSTFLDAPPAAVVMRAIDVPEHGGDTGFLSMYTAWETLSPTMQATIEGLNVVHSATRVFGSLYQAQNRRWSNTSLKVMDVDAGDRETVHPLVVTHPGSGRKGLYVNQVYCQRIEGMTDAESKPLLQFLYEHATRFDFTCRVRWKKDQVLVWDNLCTMHRAVPDYAGKFRYLTRTTVGGVRPAR
B2: SEQ ID NO: 78: RdpA mutant L82H + V187L + F182W + G103L + R180D (protein)
chain: B1 chain with T80V, R180D
B3: SEQ ID NO: 82: RdpA mutant L82H + V187L + F182W + G103L + R180E (protein)
chain: B1 chain with T80V, R180E
B4: SEQ ID NO: 86: RdpA mutant L82H + V187L + F182W + G103L + R180S (protein)
chain: B1 chain with T80V, R180S
B5: SEQ ID NO: 38: RdpA mutant L82H + V187L + F182W + R104G (protein)
chain: B1 chain with T80V, L103G, R104G
B6: SEQ ID NO: 106: RdpA mutant L82H + V187L + F182W + G103L + T112S (protein)
chain: B1 chain with T80V, T112S
B7: SEQ ID NO: 54: RdpA mutant L82H + V187L + F182W + R104G + R180W (protein)
chain: B1 chain with T80V, L103G, R104G, R180W
B8: SEQ ID NO: 50: RdpA mutant L82H + V187L + F182W + R104G + V80T (protein)
chain: B1 chain with L103G, R104G
B9: SEQ ID NO: 58: RdpA mutant L82H + V187L + F182W + R104G + R180M (protein)
chain: B1 chain with T80V, L103G, R104G, R180M
B10: SEQ ID NO: 122: RdpA mutant L82H + V187L + F182W + G103L + R104G + V105Y (protein)
chain: B1 chain with T80V, R104G, V105Y
B11: SEQ ID NO: 118: RdpA mutant L82H + V187L + F182W + R104G + V77I (protein)
chain: B1 chain with V77I, T80V, L103G, R104G
B12: SEQ ID NO: 2 (protein)
chain: B1 chain with T80V, L103G, W182F, L187V
B13: SEQ ID NO: 6 (protein)
chain: B1 chain with T80V, L103G, W182F
B14: SEQ ID NO: 1: Amino acid sequence of RdpA (wild-type R-dichlorprop dioxygenase) (protein)
chain: B1 chain with T80V, H82L, L103G, W182F, L187V
modifications: Sphingobium herbicidovorans
B15: SEQ ID NO: 110 (protein)
chain: B1 chain with T80V, T112M
B16: SEQ ID NO: 134 (protein)
chain: B1 chain with T80V, L103G, R104G, T112S, R180W
B17: SEQ ID NO: 114 (protein)
chain: B1 chain with T80V, F247Y
B18: SEQ ID NO: 94 (protein)
chain: B1 chain with T80V, R180W
B19: SEQ ID NO: 130 (protein)
chain: B1 chain with T80V, L103G, R104G, T112S, R180M

One data set deals with Arabidopsis thaliana. Nature of the data set: T2 transgenic Arabidopsis thaliana seeds screened on compound A medium. The data set is classed as in vivo. The following applies: 0.15 μM compound A in medium, 11-24 days. From the text: Engineered proteins were selected for Arabidopsis thaliana transformation and plant analysis. DNA constructs were transformed into Arabidopsis thaliana using Agrobacterium tumifaciens and standard methods known in the art.
The transformed TO transgenic plantlets grew in the greenhouse. T1 generation Arabidopsis thaliana plant seeds produced by transformation of all constructs were collected after approximately 60 days of growth. Transgenic T1 generation Arabidopsis thaliana plants were screened by adding HYG to medium for T1 generation. T1 plants were selfed to produce seeds of T2 generation Arabidopsis thaliana plants. Wherein, compound A was added to medium to screen and test T2 generation Arabidopsis thaliana plant seeds, that were produced by all constructs, comprising unique events screened by T1 generation.
Take B1: the “drug resistance compared with wild-type Arabidopsis thaliana (longer roots and larger leaves)” value was “exhibited better drug resistance”.
Take B2: the “drug resistance compared with wild-type Arabidopsis thaliana (longer roots and larger leaves)” value is listed as “exhibited better drug resistance”.
Still for that read-out and setting: next, B3: “exhibited better drug resistance”; B4: “exhibited better drug resistance”.

The next data set has as its system rice (Jinjing 818). Nature of the data set: Transgenic rice T0 plantlets in greenhouse sprayed with compound B. The settings on record: medicated medium test and greenhouse spraying test for T0 generation, compound B. The data set is classed as in vivo. Here is the method: Then, the obtained regenerated TO generation transgenic plantlets grew in the greenhouse, and were sprayed with compound B at the growth stage when approximately two leaves unfolded and the third one just appearing. Resistance levels of plants were recorded and evaluated after spraying treatment, wherein, the test results of control Jinjing 818 plants and transgenic Jinjing 818 plants comprising the protein-coding gene of SEQ ID NO: 42 after applying 20 g, 40 g, 60 g, 80 g, 100 g, 120 g/mu (1 mu=1/15 ha) compound B for corresponding days (DAT) are shown in FIG. 2.
Regarding B5, the “tolerance compared with the wild types (summary)” value is reported as “exhibited apparent tolerance”.
Same read-out and setting: next, B3: “exhibited apparent tolerance”.
On to B4, for which the “tolerance compared with the wild types (summary)” value is given as “exhibited apparent tolerance”.
On to B6, for which the “tolerance compared with the wild types (summary)” value is on record as “exhibited apparent tolerance”.

System in the next data set: not listed separately
Nature of the data set: Enzymatic kinetic measurements of purified proteins with compound A as substrate. The settings on record: purified protein, compound A 0-1000 μM as substrate. The data set is classed as biochemical. Here is the method:
Based on the results of HPLC, representative engineered proteins were selected for protein purification. Further protein characterization, such as Km, Vmax and Kcat, was performed on the 8 engineered proteins from Table 2. Conventional Ni column affinity chromatography was used for protein purification and protein extract purity was assessed by SDS-PAGE analysis. After determining protein concentration by BCA method, enzyme activity was determined.
For the molecule B5, the Kcat came to 0.43 S^−1, the Km was determined as 54.6 µM and the Vmax came to 49.9.
The like results for B7 were, in that order, 0.35 S^−1, 96.9 µM and 81.
On to B8, for which the Kcat turned out to be 0.07 S^−1, the Km worked out at 24.9 µM and the Vmax is given as 15.7.
For B9 the same measures were 0.05 S^−1, 28.3 µM and 12.3.
For B10 the same measures were 1.1 S^−1, 96.4 µM and 127.9.
Consider B11, for which the Kcat is reported as 0.43 S^−1, the Km is 83.7 µM and the Vmax is listed as 99.5.

System in another data set: not listed separately
Nature of the data set: Conversion rate of substrate compound A by E. coli expressing each engineered protein (HPLC, oxygenase activity). The data set is classed as biochemical. The following applies: Reaction condition 1: bacteria cultured overnight, substrate compound A and IPTG added to react overnight. The source says:
The high-throughput bacterial protein expression was achieved by cloning the synthesized gene that encodes each engineered protein into a bacterial expression vector with a C-terminal histidine tag (His-tag). The vectors were transformed into Escherichia coli (E. coli), and expression of the engineered proteins was induced. E. coli cultures were selected and cultured in centrifuge tubes overnight, meanwhile, added with substrates and IPTG, and the cultures were centrifuged to pellet the bacteria the next day. Alternatively, E. coli cultures were selected and cultured in centrifuge tubes overnight, and centrifuged to pellet the bacteria after adding substrates for reaction the next day. The supernatant of reaction solution was pipetted into a 96-well plate and the absorbance at 510 nm from 4-aminoantipyrine and potassium ferricyanide was measured by an endpoint colorimetric method to detect phenol products. Substrate reduction and product yield were measured by high performance liquid chromatography (HPLC) to detect the oxygenase activity (i.e., enzymatic activity) of the engineered proteins, and the activities of the proteins were compared by calculating conversion rates.
Conversion rate=(Peak area of initial substrate−Peak area of substrate after reaction)/Peak area of initial substrate*100%
Regarding B5, the Conversion rate came out at 96.9%.
Regarding B7, the Conversion rate was determined as 92.5%.
The same measure, in the same setting: next, B12: 67.5%; B8: 97.2%.
The same measure, in the same setting: next, B13: 95.2%.
B9 had a Conversion rate of 90%.
Same read-out and setting: next, B14: 0.06%; B10: 94.3%.
The molecule B11 showed a Conversion rate of 95.8%.

Staying with this data set, now noted: Reaction condition 2: bacteria cultured overnight, 8 times dose of substrate compound A of condition 1 added, react 3 hours the next day.
Molecule B1 gave a Conversion rate of 81%.
Same read-out and setting: with B15 the figure was 54.6%; with B16, 77.6%; with B2, 79%.
On the same count and under the same terms, with B17 the figure was 53%.
Same read-out and setting: with B3 the figure was 71.6%.
In turn, B18 gave a Conversion rate of 63.2%.
B4 gave a Conversion rate of 76.8%.
On the same count and under the same terms, next, B19: 88.3%; B14: 0.06%.
Same read-out and setting: with B6 the figure was 86.3%.

The subject of the next data set is rice (Jinjing 818). Nature of the data set: Transgenic rice seedlings, compound B added to medium at rooting phase. The following applies: at least 1 μM compound B in medium (0.5 and 1 μM for SEQ ID NO: 42), 17-26 days. Type of data set: in vivo. Here is the method: Plant transformation vectors were constructed, each comprising a recombinant DNA molecule encoding an engineered protein (SEQ ID NO: 42/38/82/86/102/106/126/138/142) with the protein-coding sequence optimized for monocot expression, and rice (Jinjing 818) calli were transformed with these vectors using Agrobacterium tumifaciens and standard methods known in the art. Different concentrations of hormone herbicide compound B were added at the rooting phase of the rice seedlings to test hormone resistance, wherein, the test results of control Jinjing 818 plants and transgenic Jinjing 818 plants comprising the protein-coding gene of SEQ ID NO: 42 after adding 0.5 μM and 1 μM compound B to medium for 19 days are shown in FIG. 1. The test results of control Jinjing 818 plants and transgenic Jinjing 818 plants comprising the protein-coding genes of SEQ ID NO: 38/82/86/102/106/126/138/142 after adding 1 μM compound B to medium are shown in FIG. 5-11.
Consider B5, for which the “drug resistance (tolerance to compound B) compared with wild-type plants” value is listed as “exhibited better drug resistance”.
With B3, the “drug resistance (tolerance to compound B) compared with wild-type plants” value is on record as “exhibited better drug resistance”.
The same measure, in the same setting: next, B4: “exhibited better drug resistance”; B6: “exhibited better drug resistance”.
